The values below are quoted from earlier work in PMC2752191.

In data set [1] the target is Bax peptide (UniProt Q07812).
The target of data set [2] is Beclin1 peptide (UniProt Q14457).
Data set [3] addresses Bak peptide (UniProt Q16611).

Sequence of vBcl-2 (P89884 whole entry): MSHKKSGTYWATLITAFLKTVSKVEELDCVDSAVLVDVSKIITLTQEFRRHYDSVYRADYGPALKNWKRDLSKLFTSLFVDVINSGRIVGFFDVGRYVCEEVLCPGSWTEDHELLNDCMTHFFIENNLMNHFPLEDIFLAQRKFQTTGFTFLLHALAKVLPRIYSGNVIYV
Sequence of Beclin1 peptide (Q14457 107-130): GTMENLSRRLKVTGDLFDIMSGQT
Sequence of Bax peptide (Q07812 55-74): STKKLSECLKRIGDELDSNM

For vBcl-2 (from UniProt P89884), the results for the Kd in data set [1], in data set [2] and in data set [3] were 690 nM, 40 nM and 76 nM, respectively.
